Patent publication US20110165156A1 (published 2011)
Positions count from the first letter of the chain named.

Legend:
[1] = target: CSF-1R of cynomolgous monocytes (cynomolgous); test: cell-based or functional assay
[2] = target: T1, human CSF-1R fragment D1-D3 (human, UniProt P07333 20-311); test: SPR Biacore T100, 37 C, antibody captured, D1-D3 single cycle kinetics
T1 construct: Subcloned into the pCMV-presS-HisAvitag expression vector; not shown: His-Avi tag of the vector pCMV-presS-HisAvitag
Procedure: Antibodies against CSF-1R were captured via amine coupled capture molecules. Using the single cycle kinetics five increasing concentrations of human CSF-1R fragment D1-D3 (SEQ ID NO: 66) were injected. Human CSF-1R fragment D1-D3 was subcloned into pCMV-presS-HisAvitag expression vector.
Single Cycle Kinetics was measured at a flow rate of 30 μL/min by five consecutive injections of the analyte with concentrations, c=7.8, 31.25, 125 500 and 2000 nM, without regeneration. Each injection was 30 seconds long and followed by a dissociation phase of 120 Seconds for the first four injections, and finally 1200 seconds for the highest concentration (=last injection).
Kinetic parameters were calculated by using the usual double referencing (control reference: binding of analyte to capture molecule; Flow Cell: subdomain CSF-1R concentration “0” as Blank) and calculation with model ‘titration kinetics 1:1 binding with draft’.

T1 sequence (P07333 20-311): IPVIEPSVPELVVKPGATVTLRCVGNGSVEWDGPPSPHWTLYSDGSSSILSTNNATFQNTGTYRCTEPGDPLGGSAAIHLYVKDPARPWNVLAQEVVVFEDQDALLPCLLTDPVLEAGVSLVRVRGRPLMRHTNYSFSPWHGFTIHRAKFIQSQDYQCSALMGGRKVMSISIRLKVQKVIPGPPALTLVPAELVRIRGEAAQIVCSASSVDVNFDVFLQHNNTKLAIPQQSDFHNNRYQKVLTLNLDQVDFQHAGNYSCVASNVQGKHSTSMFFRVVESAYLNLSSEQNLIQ

B1: Mab 2F11 (antibody, V domains shown)
VH: QVQLKESGPGLVAPSQSLSITCTVSGFSLTTYDISWIRQSPGKGLEWLGVIWTDGGTNYNSPFMSRLSIRKDNSKSQVFLKMNRLQTDDTAIYYCVRDQRLYFDVWGAGTTVTVSS
VL: NIVMTQSPKSMSMSVGERVTLNCKASEDVNTYVSWYQQQPEQSPKLLIYGASNRYTGVPDRFTGGGSTTDFTLTISSVQAEDLADYFCGQSFSYPTFGTGTKLEIK
notes: Murine monoclonal antibody from a hybridoma; also called muMab 2F11
- % inhibition (of survival) = (100% - % survival) [1]: 96%
- % survival (cynomolgous monocytes, 5 µg/ml antibody) [1]: 4%
- binding result [2]: no binding (tested: 2000 nM)

B2: Mab 1G10 (antibody, V domains shown)
VH: B1 VH with Q1R, T31S, T53S, D54G, S68R, R70S, N73D, K75R, M82V, Q99L
VL: KIVMTQSPKSMSVSVGERVSLSCKASEDVGTYVSWYQQKPEQSPKLLIYGSSNRYTGVPDRFTGSGSATDFTLTISSVQAEDLADYSCGQSFTYPTFGTGTKLEIK
notes: Murine monoclonal antibody from a hybridoma
- % inhibition (of survival) = (100% - % survival) [1]: 98%
- % survival (cynomolgous monocytes, 5 µg/ml antibody) [1]: 2%
- binding result [2]: no binding (tested: 2000 nM)

B3: Mab 2E10 (antibody, V domains shown)
VH: QVQLKESGPGLVAPSKSLSITCTVSGSSLDSFDISWIRQSPGKGLEWLGVIWTGGGTNYNSGFMSRLRITKDNSKSQVLLKMNSLQSDDTAIYYCVRDPRLYFDVWGAGTTVTVSS
VL: B1 VL with N22S, N30V, Q39K, E41D, G65S, T68A, F87Y, S91T
notes: as for B2
- % inhibition (of survival) = (100% - % survival) [1]: 83%
- % survival (cynomolgous monocytes, 5 µg/ml antibody) [1]: 17%
- binding result [2]: no binding (tested: 2000 nM)

B4: Mab 2H7 (antibody, V domains shown)
VH: B3 VH with S40P, T70S, L79F, N83S
VL: B1 VL with N22S, N30V, Q39K, G65S, T68A, V78I, F87Y, S91T
notes: as for B2
- % inhibition (of survival) = (100% - % survival) [1]: 92%
- % survival (cynomolgous monocytes, 5 µg/ml antibody) [1]: 8%
